# PMC13678254, “Exploring the bistable equilibrium of methylated CpG DNA recognition by the MBD2 protein”
# B1: 17-bp symmetrically methylated mCpG DNA, 3'FAM (dsDNA)
# DNA 1: GAGGCGCTCGGCGGCAG
# DNA 2: CTGCCGCCGAGCGCCTC
# modifications: 5-methylcytosine at position 9 of strand 1 and at position 8 of strand 2 (symmetric mCpG)
# Target: MBD2 MBD S189A (Homo sapiens, UniProt Q9UBB5 150-214, S189A)
# Test: fluorescence polarization; 3 mM Mg2+; 10 nM DNA; FP: 10 mM HEPES pH 7.5, 50 mM NaCl, 3 mM MgCl2, 0.1 mM EDTA, 1 mM DTT, 0.02% sodium azide; 10 nM 3'FAM DNA; temperature not stated
# Details: protein: recombinant; tags: thioredoxin/His tag (modified pET32a) removed by TEV protease; label: 3'FAM on forward strand; blunt
# Chain of MBD2 MBD S189A (Q9UBB5 150-214 S189A): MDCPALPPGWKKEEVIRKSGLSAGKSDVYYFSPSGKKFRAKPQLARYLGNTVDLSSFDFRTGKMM
binder,measurement,value
B1,Kd,11.5 ± 0.6 µM
